B1: ZER1 (parent)
chain: PILRLLPQGISPVSQHWATWALYN
B2: POMT2 (parent)
chain: YHEAPMTRKHYQVTGYGINGTGDS

Variants of: B1
Assay: protein stability index of a GFP-peptide fusion (GPS, HEK-293T) (PSI 1-6); higher = more stable
Conditions: c terminus: a fixed tail appended
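Also: lentivirally expressed fusions sorted by FACS into six bins by GFP to DsRed ratio, PSI derived from sequencing read proportions per bin multiplied by bin number.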

Variant	protein stability index
PILRLLPQGISPVSQHWETWALYN	2.82
PILRLLPQGISPVSQHWGTWALYN	2.24
PILRLLPQGISPVSQHWCTWALYN	1.74
PILRLLPQGISPVSQHWRTWALYN	2.58
PILRLLPQGISPVSQHWNTWALYN	3.82
PILRLLPQGISPVSQHWMTWALYN	2.28
PILRLLPQGISPVSQHWLTWALYN	2.27
PILRLLPQGISPVSQHWHTWALYN	2.94
PILRLLPQGISPVSQHWYTWALYN	4.06
PILRLLPQGISPVSQHWKTWALYN	2.89
PILRLLPQGISPVSQHWITWALYN	1.83
PILRLLPQGISPVSQHWTTWALYN	3.18
PILRLLPQGISPVSQHWATWALYM	3.8
PILRLLPQGISPVSQHWATWALYW	2.32
PILRLLPQGISPVSQHWATWALYQ	2.31
PILRLLPQGISPVSQHWATWALYI	3.12
PILRLLPQGISPVSQHWATWALYR	4.17
PILRLLPQGISPVSQHWATWALYP	3.08
PILRLLPQGISPVSQHWATWALYV	3.21
PILRLLPQGISPVSQHWATWALYA	2.09
PILRLLPQGISPVSQHWATWALYH	2.93
PILRLLPQGISPVSQHWATWALYT	2.25

Variant	protein stability index
PILRLLPQGISPVSQHWATWALYD	3.49
PILRLLPQGISPVSQHWATWALYL	4.12
PILRLLPQGISPVSQHWATWELYN	2.6
PILRLLPQGISPVSQHWATWPLYN	2.65
PILRLLPQGISPVSQHWATWSLYN	2.6
PILRLLPQGISPVSQHWATWRLYN	1
PILRLLPQGISPVSQHWATWILYN	3.15
PILRLLPQGISPVSQHWATWDLYN	2.79
PILRLLPQGISPVSQHWATWWLYN	2.29
PILRLLPQGISPVSQHWATWFLYN	2.7
PILRLLPQGISPVSQHWATWQLYN	3.72
PILRLLPQGISPVSQHWATWYLYN	4.95
PILRLLPQGISPVSQHWATWVLYN	3.96
PILRLLPQGISPVSQHWATWMLYN	3.29
PILRLLPQGISPVSQHWATWKLYN	2.07
PILRLLPQGISPVSQHWATWLLYN	2.38
PILRLLPQGISPVSQHWATWCLYN	2.69
PILRLLPQGISPVSQHWATWTLYN	2.57
PILRLLPQGISPVSQHWATWNLYN	1.76
PILRLLPQGISPVSQHWATAALYN	2.62
PILRLLPQGISPVSQHWATHALYN	2.61
PILRLLPQGISPVSQHWATFALYN	3.5

Variant	protein stability index
PILRLLPQGISPVSQHWATYALYN	2.5
PILRLLPQGISPVSQHWATDALYN	2.6
PILRLLPQGISPVSQHWATIALYN	4.55
PILRLLPQGISPVSQHWATSALYN	2.41
PILRLLPQGISPVSQHWATNALYN	2.09
PILRLLPQGISPVSQHWATMALYN	3.46
PILRLLPQGISPVSQHWATQALYN	1.47
PILRLLPQGISPVSQHWATTALYN	3.72
PILRLLPQGISPVSQHWATGALYN	1.37
PILRLLPQGISPVSQHWATCALYN	3.55
PILRLLPQGISPVSQHWATPALYN	2.79
PILRLLPQGISPVSQHWATEALYN	1.58
PILRLLPQGISPVSQHWATRALYN	1.64
PILRLLPQGISPVSQHWATKALYN	1.28
PILRLLPQGISPVSQHWATWAEYN	1.58
PILRLLPQGISPVSQHWATWAHYN	1.58
PILRLLPQGISPVSQHWATWAWYN	4.02
PILRLLPQGISPVSQHWATWARYN	3.48
PILRLLPQGISPVSQHWATWAAYN	3.32
PILRLLPQGISPVSQHWATWAGYN	2.3
PILRLLPQGISPVSQHWATWAQYN	3.18
PILRLLPQGISPVSQHWATWANYN	1.88

Variant	protein stability index
PILRLLPQGISPVSQHWATWADYN	2.02
PILRLLPQGISPVSQHWATWAYYN	2.83
PILRLLPQGISPVSQHWATWAPYN	1.57
PILRLLPQGISPVSQHWATWASYN	1.71
PILRLLPQGISPVSQHWATWAKYN	1.52
PILRLLPQGISPVSQHWATWALGN	2.11
PILRLLPQGISPVSQHWATWALEN	1.8
PILRLLPQGISPVSQHWATWALDN	2
PILRLLPQGISPVSQHWATWALSN	1.66
PILRLLPQGISPVSQHWATWALVN	3.73
PILRLLPQGISPVSQHWATWALRN	1.17
PILRLLPQGISPVSQHWATWALNN	2.92
PILRLLPQGISPVSQHWATWALKN	1.92
PILRLLPQGISPVSQHWATWALWN	4.62
PILRLLPQGISPVSQHWATWALIN	3.22
PILRLLPQGISPVSQHWATWALHN	3.01
PILRLLPQGISPVSQHWATWALPN	1.54
PILRLLPQGISPVSQHWAPWALYN	2.12
PILRLLPQGISPVSQHWADWALYN	2.33
PILRLLPQGISPVSQHWAKWALYN	2.3
PILRLLPQGISPVSQHWAAWALYN	2.69
PILRLLPQGISPVSQHWAGWALYN	1.97

Variants of: B2
Assay: as above
Conditions: c terminus: a fixed tail appended

Variant	protein stability index
YHEANMTRKHYQVTGYGINGTGDS	2.32
YHEAHMTRKHYQVTGYGINGTGDS	2.74
YHEACMTRKHYQVTGYGINGTGDS	2.31
YHEALMTRKHYQVTGYGINGTGDS	1.89
YHEAWMTRKHYQVTGYGINGTGDS	1.63
YHEARMTRKHYQVTGYGINGTGDS	2.29
YHEADMTRKHYQVTGYGINGTGDS	2.72
YHEAVMTRKHYQVTGYGINGTGDS	2.14
YHEAYMTRKHYQVTGYGINGTGDS	1.73
YHEAMMTRKHYQVTGYGINGTGDS	2.79
YHEAFMTRKHYQVTGYGINGTGDS	2.77
YHEAKMTRKHYQVTGYGINGTGDS	2.36
YHEASMTRKHYQVTGYGINGTGDS	2.69
YHEATMTRKHYQVTGYGINGTGDS	2.02
YHEAIMTRKHYQVTGYGINGTGDS	3.27
YHEAAMTRKHYQVTGYGINGTGDS	2.62
YHEAQMTRKHYQVTGYGINGTGDS	2.84
YHEAEMTRKHYQVTGYGINGTGDS	3.17
YHEAGMTRKHYQVTGYGINGTGDS	2.51
YHEAPCTRKHYQVTGYGINGTGDS	2
YHEAPATRKHYQVTGYGINGTGDS	2.48
YHEAPFTRKHYQVTGYGINGTGDS	1.82
YHEAPETRKHYQVTGYGINGTGDS	2.56
YHEAPDTRKHYQVTGYGINGTGDS	2.36
IHEAPMTRKHYQVTGYGINGTGDS	4.03

Variant	protein stability index
WHEAPMTRKHYQVTGYGINGTGDS	3.72
HHEAPMTRKHYQVTGYGINGTGDS	3.58
RHEAPMTRKHYQVTGYGINGTGDS	3.51
KHEAPMTRKHYQVTGYGINGTGDS	3.97
LHEAPMTRKHYQVTGYGINGTGDS	3.47
MHEAPMTRKHYQVTGYGINGTGDS	3.71
SHEAPMTRKHYQVTGYGINGTGDS	3.68
GHEAPMTRKHYQVTGYGINGTGDS	3.53
CHEAPMTRKHYQVTGYGINGTGDS	3.05
NHEAPMTRKHYQVTGYGINGTGDS	3.5
VHEAPMTRKHYQVTGYGINGTGDS	3.49
PHEAPMTRKHYQVTGYGINGTGDS	4.07
EHEAPMTRKHYQVTGYGINGTGDS	4.3
THEAPMTRKHYQVTGYGINGTGDS	3.91
FHEAPMTRKHYQVTGYGINGTGDS	1.89
QHEAPMTRKHYQVTGYGINGTGDS	3.9
DHEAPMTRKHYQVTGYGINGTGDS	3.94
AHEAPMTRKHYQVTGYGINGTGDS	3.68
YHEPPMTRKHYQVTGYGINGTGDS	1.96
YHETPMTRKHYQVTGYGINGTGDS	2.21
YHEGPMTRKHYQVTGYGINGTGDS	2.37
YHEVPMTRKHYQVTGYGINGTGDS	2.96
YHENPMTRKHYQVTGYGINGTGDS	1.69
YHEEPMTRKHYQVTGYGINGTGDS	2.93
YHELPMTRKHYQVTGYGINGTGDS	1.91

Variant	protein stability index
YHEDPMTRKHYQVTGYGINGTGDS	2.95
YHEIPMTRKHYQVTGYGINGTGDS	2.42
YHEKPMTRKHYQVTGYGINGTGDS	2.18
YHEYPMTRKHYQVTGYGINGTGDS	3.11
YHERPMTRKHYQVTGYGINGTGDS	2.45
YHECPMTRKHYQVTGYGINGTGDS	2.5
YHEQPMTRKHYQVTGYGINGTGDS	2.68
YHESPMTRKHYQVTGYGINGTGDS	1.92
YHEWPMTRKHYQVTGYGINGTGDS	2.2
YHEMPMTRKHYQVTGYGINGTGDS	1.49
YHEFPMTRKHYQVTGYGINGTGDS	2.68
YHEHPMTRKHYQVTGYGINGTGDS	2.04
YHTAPMTRKHYQVTGYGINGTGDS	2.32
YHQAPMTRKHYQVTGYGINGTGDS	1.34
YHYAPMTRKHYQVTGYGINGTGDS	1.77
YHGAPMTRKHYQVTGYGINGTGDS	2.75
YHFAPMTRKHYQVTGYGINGTGDS	1.52
YHDAPMTRKHYQVTGYGINGTGDS	2.15
YHSAPMTRKHYQVTGYGINGTGDS	1.6
YHCAPMTRKHYQVTGYGINGTGDS	2
YHKAPMTRKHYQVTGYGINGTGDS	1.9
YHNAPMTRKHYQVTGYGINGTGDS	2.38
YHAAPMTRKHYQVTGYGINGTGDS	2.46
YHWAPMTRKHYQVTGYGINGTGDS	1.44
YHHAPMTRKHYQVTGYGINGTGDS	1.77

Variant	protein stability index
YHPAPMTRKHYQVTGYGINGTGDS	2.87
YHIAPMTRKHYQVTGYGINGTGDS	1.73
YHLAPMTRKHYQVTGYGINGTGDS	1.61
YHMAPMTRKHYQVTGYGINGTGDS	1.67
YHRAPMTRKHYQVTGYGINGTGDS	1.47
YHVAPMTRKHYQVTGYGINGTGDS	2.22
YFEAPMTRKHYQVTGYGINGTGDS	3.38
YPEAPMTRKHYQVTGYGINGTGDS	2.99
YGEAPMTRKHYQVTGYGINGTGDS	2.92
YWEAPMTRKHYQVTGYGINGTGDS	2.72
YEEAPMTRKHYQVTGYGINGTGDS	3.95
YVEAPMTRKHYQVTGYGINGTGDS	1.89
YKEAPMTRKHYQVTGYGINGTGDS	3.57
YDEAPMTRKHYQVTGYGINGTGDS	3.98
YREAPMTRKHYQVTGYGINGTGDS	3.81
YQEAPMTRKHYQVTGYGINGTGDS	3.33
YLEAPMTRKHYQVTGYGINGTGDS	3.07
YTEAPMTRKHYQVTGYGINGTGDS	2.58
YAEAPMTRKHYQVTGYGINGTGDS	2.56
YNEAPMTRKHYQVTGYGINGTGDS	3.5
YSEAPMTRKHYQVTGYGINGTGDS	3.39
YCEAPMTRKHYQVTGYGINGTGDS	1.97
YIEAPMTRKHYQVTGYGINGTGDS	2.21
YMEAPMTRKHYQVTGYGINGTGDS	3.09
YYEAPMTRKHYQVTGYGINGTGDS	2.75
